From the nanobody polyreactivity screen of Harvey et al. (2022) come the findings set out here.

The nature of the data set: yeast display, Sf9 membrane polyspecificity reagent, FACS + sequencing; frameworks hold sequencing errors. The gist of the method: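 Galactose-induced (36–48 hours) yeast carrying a synthetic nanobody display library were exposed to 10% biotinylated, detergent-solubilized Sf9 membrane reagent at 4 °C for 1 hour. FACS followed streptavidin microbead enrichment, using low and high (top ~1%) gates for expression (anti-HA) and reagent binding (streptavidin). Colony PCR, MiSeq 2 × 250 sequencing and CDR-length filtering followed. Labels for polyreactivity reflect the gate of origin.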
For the sequence “QVQLVESGGGLVQAGGSLRLSCAASGSIFVGYVMGWYRQAPGKERELVAAISRSGGRTYYADSVKGRFTISRDNAKNTVYLQMNSLKPEDTAVYYCNADVIDLDYDYWGQGTQVTVSS”, the “polyreactivity (PSR sort gate)” value was “low polyreactivity”.
The result for “QVQLVESGGGLVQAGGSLRLSCAASGSIFYYYAMGWYRQAPGKERELVAAISKSGGSTYADSVKGRFTISRDNAKNTVYLQMNSLKPEDTAVYYCAATYYYSWYAFNYWGQGTQVTVSS” reads “low polyreactivity”; that for “QFQLVESGGGLVQAGGSLRLSCAASGINFSSYVMGWYRQAPGKERELVAAISKSGARTSYADSVKGRFSISRDNAKNTVYLQMNSLKPEDTAVYYCNAYTESWYPIYFFGWSYTAVDYWGQGTQVTVSS”, “low polyreactivity”; that for “QVQLEESGGGLVQAGGSLRLSCAASGITFFWNAMGWYRQAPGTERELVAVISSGGSTKYSDSVKGRFTISRDNAKNTVYLQMNSLKPEDTAVYYCAAAVRVGTRQYGYWGQGTQVTVSS”, “high polyreactivity”.
To “QVQLEDSGGGLVQAGGSLRLSCAASGSTFRYYTMGWYRQAPGKEREFVASIRTSGGSTYADSVKGRFTISRDNAKNTVYLQMNSLKPEDTAVYYCAARGGYRYTRYDYWGQGTQVTVSS” belongs “high polyreactivity”.
In the case of “QVQLEESGGGLVQAGGSLRLSCAASGSIFVGYALGWYIQAPGKERELVASITTRGGSTHYADYVKGRFTISRDNAKNTVYLQMNSLKPEDTAVYYCAADSLSNGVLQYLPGYDYWGQGTQVTVSS”, the “polyreactivity (PSR sort gate)” value was “low polyreactivity”.
Regarding “QVQLVESGGGLVQAGGSHRLSCASYGSIFRCYAKGWYRQAPGKERELVAGITRSGGSTYYADSVKGRFTISRDNAKNTVYLQLNRLKPEDTAVYYCNADLYRKRAWVRRDGSWGHGTQVTVSS”, the “polyreactivity (PSR sort gate)” value is recorded as “low polyreactivity”.
As for “QVQLVESCGGLVQAGGSLRLSCAASGLIIRWYAMGWYRQAPGKERELVAAITRAGSTYYADSVKWRFTISRDNAKNTVYLQMNSLNPEDTAVYYCAADTNWSPGYIMYYRSDYWGQGTQVTVSS”, the “polyreactivity (PSR sort gate)” value is “low polyreactivity”.
With “QVQLVESGGGLVQAGGSLRLSCAASGFIFYHNAMGWYRQAPGKERELVAAISYSGGSTYYADSVKGRFTISRVNAKNTVYLQMNSLKPEDTAVYFCATPQTRTYDYWGQGTQVTVSS”, the “polyreactivity (PSR sort gate)” value is “high polyreactivity”.
On to “QVQLVESGGGLVQAGGSLRLSFAASGSTFYYHAMGWYRQAPGKERELVAAIRSTGSTNYADSVKGRFTISRDNAKNTVYLQMNSLKPEDTAVYYCAARIRRTRGYNYWGQGTQVTVSS”, for which the “polyreactivity (PSR sort gate)” value is “high polyreactivity”.
As to “QVQLVESGGGLVQAGGSLRLSCAASGFTFYYYAMGGYSQAPGKERELVAAISSTGGSTYYADSVKGRFTISRDNAKNTVYLQMNSLKPEDTAVYYCNAAGYRYPGDYDFWGQGTQVTVSS”, the “polyreactivity (PSR sort gate)” value is “high polyreactivity”.
To “QVQLVESGGGLVQAGGSLRLSCAASGIIFISYDMGWSRQAPGKERELVARINWDGGSTYYADSVKGRFTISRDNAKNTVYLQMNSLKPEDTAVYYCAAGFVGTNYPVLGFSYEYWGQGTQVTVSS” belongs “low polyreactivity”; to “QVQLVESGGGLVQAGGSLRLSCAASGSTFFTNTMGWYRQAPGKERELVAAISKSGGSTYYADSVKGRFTISRDNAKNTVYLQMNSLKPEDTAVYYCAASDRYGGRDYWGQGTQVTVSS”, “high polyreactivity”.
To “QVQLVESGGGLVQAGGSLRLSCAASGRTFAIYAMGWYRQAPGKERELVAAISGSGGSTYYADSVKGRFTISRDNAKNTVYLQMNSLKPEDTAVYYCAKRVRGHRYDYWGQGTQVTVSS” belongs “high polyreactivity”; to “QVQLVESGGGLVQAGGSLRLSCAASGYIFKNYAMGWYRQAPGKERELVAAITRRGASTYYADSVKGRFTISRDNAKNTVYLQMNSLKPEDTAVYYCAAYPWPPGEYDYWGQGTQVTVSS”, “low polyreactivity”; to “QVHLVESGGGLVQAGGSLRLSCSASGSTFFPYAMGWYRQAPGKERELVAAITSGGRTKYADSVKGRFTISRDNAKNTVYLQMNSLKPEDNAVYYCAARGLIKEYGGPYRRFGYWGQGTKVTVSS”, “high polyreactivity”.
The result for “QVQLVESGGGLVQAGGSLRLTCAASGTIFYYNAMRWYRQAPGKERELVAAISWSGSRTYYADSVKGRFTISRDNAKITVYLQMNSLKPEDTAVYYCAAVVRFPFTYDYWGQGTQVTVSS” reads “high polyreactivity”.
For “QVQLVESGGGLVQAGGSLRLSCAASGSIFYLYAMGWYRQAPGKERELVAAITSIGGSTYADSVKGRFTISRDNAKNTVYLQMYSLKPEDTAVYYCNTDEYPLTVQVQYYYWGQGTQVTVSS”, the “polyreactivity (PSR sort gate)” value is on record as “low polyreactivity”.
Regarding “QVQLVESGGGLVQAGGSLRLSCASSGFIFRWYTMGWYRQAPGKERELVAAISWSSGSTSYADSVKGRFTISRDNAKNTVYLQMNSLKPEDTAVYYCAAVWRTASTQYYYWGQGTQVTVSS”, the “polyreactivity (PSR sort gate)” value is listed as “high polyreactivity”.
To “QVQLVESGGGLVQAGGILRLSCAASGFIFAPNAMGWYRQPPGKERELVAAISASGGSTYYADSVKGRFTISRDNAKNTVYLQMNSLKPEDTAVYYCAADRTFSSFPEYNYWGQGTQVTVSS” belongs “low polyreactivity”; to “QVQLVESGGGLVQAGCSLRLSCAASGRTFGRNAMGWNRQAPGKERELVAAITSGGSTSYADSVKGRFTISRDNAKNTVYLQMNSLKPEDTAVYYCAADVRPYYTRRVWIQFDYWGQGTQVTVSS”, “high polyreactivity”.
The result for “QVQLVESGGGLVQAGGSLRLSCAASGRTFAYNAMGWYRQAPGKERELVASITSGGSTNYADSVKGRFTISRDNAKNTVYLQKNSLKPEDTAVYYCNKDGKYHRVLYDYWGLGTQVTVSS” reads “low polyreactivity”.
The result for “QVQLVESGGGLVQEGGSLCLSCAASGIFVYNAMGWYRQAPGKEREFVAAINKSGASTFYADSVKGRFTISRDNAKNTVYLQMNSLKPEDTAVYYCNAGTLYYRYRWGHYYDSWGQGTQVTVSS” reads “low polyreactivity”.
For the sequence “QVQLVESGGGLVQAGGSLRLSCAASGRIIAVNAKGWYRQAPGKERELVAAINGGGSTNYADSVKGRFTISRDNAKNTVYLQMNSLKPEDTAVYYCAADVGWRSQTRGYYWGQGTQVTVSS”, the “polyreactivity (PSR sort gate)” value is recorded as “high polyreactivity”.
As to “QVQLVESGGGLVQAGGSLRLSCAASGSIFGEYAMGWYRQAPGKERELVAAINVNGGRTYYADSVKGRFTISRDNAKNTVYLQMNSLKPEDTAVYYCNARSYASYRQGNTYGSWGQGTQVTVSS”, the “polyreactivity (PSR sort gate)” value was “high polyreactivity”.
To “QVQLVESGGGLVQAGGSLSLTWAASGRTFLEYTMGWYRQAPGKERELVAAISSTGGSTNYADSVKGRFTISRDNAKNSVYLQMNSVKPEDTAVYYCAARLRRRSATSTRMGYWGLGTQVTVSS” belongs “high polyreactivity”.
Turning to “QVQLVESGGGLVQAGGSLRLSCAASGFTFYSYAMGWYRQSPGKERELVAAISWSGTRTYYADSVKGRFTISRDTAKNTVYLQMNSLKPEDTAVYYCAARGYRYGYGYWGQGTQVTVSS”, the “polyreactivity (PSR sort gate)” value is on record as “high polyreactivity”.
Take “PVQLVESGGGLVQAGGSLRLSCAASGIIFVKYAMGWYRQAPGKERELVAAISTRGGSTYYADSVKGRFTISRDNAMNTVYLQMNSLKPEDTAVYYCAADATRKSQLPNTVPYDYWGQGTQVTVSS”: the “polyreactivity (PSR sort gate)” value is recorded as “high polyreactivity”.
The result for “QVQLVESGGGLVQAGGSLRLSCAASGSILQSYAMGWYRQAPGKERELVAAISGSGGSTYYADSVKGRFTISRDNAKNTVYLQMNSLKPEDTAVYYCAKGPLYRTSRGEFGYWGQGTQVTVSS” reads “low polyreactivity”; that for “QVQLVESGGGLVQEGGSLRLSCAASGGIFSAYAMGWYRQAPGKERELVAAISRTGGSTYYADSVKGRFTISRDNAKITVYLQMTSLKPEDTAVYYCNADYRRYPEFDYWGQGTQVTVSS”, “high polyreactivity”.
To “QVQLVESWGGIVQAGGILRLSFAAYGRIFASNAMGWYRKAPGKERELVAGISRNGGSTFYEDSVKGRYTISRDTAKNTVYLQMISLKPDDTAVYYCARYYTHSGGYRDRIYYYWGQGTQVTVSS” belongs “low polyreactivity”; to “QVQLVESGGGLLQAGGSLRLSCAASGTIFKYYAMGWYRQAPGKERELVAAISRSGSNTYYADSVKGRFRISRDNAKNTVYLQMNTLKPEDTAVYYFAARARRYIYTFDSWGQGTQVTVSS”, “high polyreactivity”.
With “QVQLVESGGGLGQAGCSLRLSCAASGSTFAVYAMGWYRQAPGKERELVATITGSGGSTYYADSVKGRFTISRDNAKNPVYLQMNSLKPEDNAVYYCAAEVVAWSLYEDFKTYDYWGQGTQVTVSS”, the “polyreactivity (PSR sort gate)” value is on record as “low polyreactivity”.
“QVQLEESGGGLVQAGGSLRLSCAASGSTFGFYAMRWYRQAPGKERDLVAAISSAARTYYADSVKGRFTISRDNAKNTVYLQMNSLKPADTAVYYCSAEAYHWTSYIGYGGVYYWGQGTQVTGSS”: the “polyreactivity (PSR sort gate)” value is recorded as “low polyreactivity”.
To “QVQLVESGGGLVQAGGSLRLSCAASGSTFRYNTMGWYRQAPGKEMELVARITSVGSTNYADSVKGRFTISRDNAKNTVYFQMNSLKPEDTAVYYCATTRPIRRTSARYNYWGQGTQVTVSS” belongs “low polyreactivity”; to “QVHLQDSGGGLVQAGGSLRLSCAASCYISDVNDMGWYRQAPGKEREFVAGIGYGGITNYADSVKGRFTISRDNAQNTVYQHMNSLKPKDTAVYNCAVHWGPDSGLYYWGQGTQVTVSS”, “high polyreactivity”; to “QVQLVESGGGLVQAGGSLRLSCAPSGRTFSRNAMGWYRQAPGKERELVAAISQRGVSTYYADSVKGSFTISRDNAQNSVYLQMNSLKPEDSAVYYCNTRGTYRYDYWGQGTQGTVSS”, “low polyreactivity”.
Take “QVQLVESGGGLVQAGGSLRLSCASSGSTFYGNAMGWYRQEPGKERELVASISSGGTNYADSVKGRFTISRDNAKNTVYLQMNSLKPEDTAVYYLNADYIDTFRGFDYWGQGTQVTVSS”: the “polyreactivity (PSR sort gate)” value is “low polyreactivity”.
In the case of “QVQLVESGGGLVQAGGSLRLSCASSGRIFFMYAMGWYIQAPGKERELVAAINKSGGSTYADSVKGRFTISRDNANNTVYLQMNSLKPEDTAVYYCATENTDSGESVYIVKYGSDYWGQGTQVTVSS”, the “polyreactivity (PSR sort gate)” value is “low polyreactivity”.
To “QVQLVESGGGLVQAGGTLRLICAASGFTISKYAMGWYRQAPGKERELVAVISSGGLTNYADSVKGRFTISRDNAKNTVYLQMNSLKPEDSEVYYCAAIGWRTRSRFVYWGQGTQVTVAS” belongs “high polyreactivity”.
